Assay results as given in patent publication US6025158A, “Nucleic acids encoding humanized anti-IL-8 monoclonal antibodies” (Genentech, Inc., dated 2000).

What was measured:
[1] = system: human monomeric IL-8; assay: human monomeric IL-8 mediated neutrophil chemotaxis; type: cell-based
Experimental: Human neutrophils were isolated, counted and resuspended at 5×10^6 cells/ml in Hank's balanced salt solution (abbreviated HBSS; without calcium and magnesium) with 0.1% bovine serum albumin. The neutrophils were labeled by adding calcein AM (Molecular Probe, Eugene, Oreg.) at a final concentration of 2.0 μM. Following a 30 minute incubation at 37° C., cells were washed twice with HBSS-BSA and resuspended at 5×10^6 cells/ml.
Chemotaxis experiments were carried out in a Neuro Probe (Cabin John, Md.) 96-well chamber, model MBB96. Experimental samples (buffer only control, IL-8 alone or IL-8+Fabs) were loaded in a Polyfiltronics 96-well View plate (Neuro Probe Inc.) placed in the lower chamber. […]
The relative number of neutrophils migrating through the filter (Neutrophil migration index) was determined by measuring fluorescence intensity of the filter and the fluorescence intensity of the contents of the lower chamber and adding the two values together. Fluorescence intensity was measured with a CytoFluor 2300 fluorescent plate reader (Millipore Corp. Bedford, Mass.) configured to read a Corning 96-well plate using the 485-20 nm excitation filter and a 530-25 emission filter, with the sensitivity set at 3.

[2] = target: IL-8 (Homo sapiens, UniProt P10145); assay: KinEXA equilibrium and kinetic measurements; type: binding; conditions: read-out: equilibrium constant (Kd)
Experimental: The beads were resuspended in assay buffer (0.1% bovine serum albumin in PBS) to a final volume of 30 ml.
The equilibrium constant (Kd) was calculated using the software provided by Sapidyne Instruments Inc.

Sequence of IL-8 (P10145 28-99 limits assumed): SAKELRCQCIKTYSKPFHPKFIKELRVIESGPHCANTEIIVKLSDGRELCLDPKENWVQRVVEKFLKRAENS

| IC50 [1] [nM] | Kd [2] [nM] | Molecule |
| --- | --- | --- |
| ~15 | – | F(ab)-9: humanized variant, F(ab)-6 with GluH6Gln (protein) light: DIQMTQSPSSLSASVGDRVTITCRSSQSLVHGIGNTYLHWYQQKPGKAPKLLIYKVSNRFSGVPSRFSGSGSGTDFTLTISSLQPEDFATYYCSQSTHVPLTFGQGTKVEIKRTVAAPSVFIFPPSDEQLKSGTASVVCLLNNFYPREAKVQWKVDNALQSGNSQESVTEQDSKDSTYSLSSTLTLSKADYEKHKVYACEVTHQGLSSPVTKSFNRGEC heavy: EVQLVQSGGGLVQPGGSLRLSCAASGYSFSSHYMHWVRQAPGKGLEWVGYIDPSNGETTYNQKFKGRFTLSRDNSKNTAYLQMNSLRAEDTAVYYCARGDYRYNGDWFFDVWGQGTLVTVSSASTKGPSVFPLAPSSKSTSGGTAALGCLVKDYFPEPVTVSWNSGALTSGVHTFPAVLQSSGLYSLSSVVTVPSSSLGTQTYICNVNHKPSNTKVDKKVEPKSCDKTHT |
| – | ~0.049 | 6G4V11N35E IgG1: full length IgG1 version of humanized anti-IL8 variant 6G4V11N35E (protein) light: DIQMTQSPSSLSASVGDRVTITCRSSQSLVHGIGETYLHWYQQKPGKAPKLLIYKVSNRFSGVPSRFSGSGSGTDFTLTISSLQPEDFATYYCSQSTHVPLTFGQGTKVEIKRTVAAPSVFIFPPSDEQLKSGTASVVCLLNNFYPREAKVQWKVDNALQSGNSQESVTEQDSKDSTYSLSSTLTLSKADYEKHKVYACEVTHQGLSSPVTKSFNRGEC heavy: EVQLVQSGGGLVQPGGSLRLSCAASGYSFSSHYMHWVRQAPGKGLEWVGYIDPSNGETTYNQKFKGRFTLSRDNSKNTAYLQMNSLRAEDTAVYYCARGDYRYNGDWFFDVWGQGTLVTVSSASTKGPSVFPLAPSSKSTSGGTAALGCLVKDYFPEPVTVSWNSGALTSGVHTFPAVLQSSGLYSLSSVVTVPSSSLGTQTYICNVNHKPSNTKVDKKVEPKSCDKTHT |
